Reference: publication PMC4428356, “Endophilin-A1 BAR domain interaction with arachidonyl CoA” (Frontiers in Molecular Biosciences, 2014)
Several values for one entry are separate records, joined by “and”; a condition that tells them apart may be missing. Equal values may be shown once.

Assays:
[1] = target: the molecule itself; experiment: SAXS; free endophilin-A1-BAR at 3, 4 and 6 mg/ml in buffer B (20 mM Bicine pH 9, 100 mM NaCl), 283 K; volume fractions of dimer, tetramer and a putative helical octamer fitted with OLIGOMER
[2] = target: the molecule itself; experiment: SAXS; free endophilin-A1-BAR at 2 mg/ml in buffer B (20 mM Bicine pH 9, 100 mM NaCl), 283 K; monodisperse; mass from forward scattering, Porod volume, fit with the crystallographic dimer

B1: Endophilin-A1-BAR (residues 1-256 of mouse endophilin-A1) (domain or fragment, UniProt Q62420 1-256, looked up)
chain: MSVAGLKKQFHKATQKVSEKVGGAEGTKLDDDFKEMERKVDVTSRAVMEIMTKTIEYLQPNPASRAKLSMINTMSKIRGQEKGPGYPQAEALLAEAMLKFGRELGDDCNFGPALGEVGEAMRELSEVKDSLDMEVKQNFIDPLQNLHDKDLREIQHHLKKLEGRRLDFDYKKKRQGKIPDEELRQALEKFDESKEIAESSMFNLLEMDIEQVSQLSALVQAQLEYHKQAVQILQQVTVRLEERIRQASSQPRREYQ
notes: endophilin-A1, mouse, residues 1-256 (BAR domain with the N-terminal amphipathic helix); calculated mass of the monomer 29 kDa; Dimeric at 2 mg/ml, higher oligomers at higher concentrations; also called endophilin-A1 BAR domain; source: E. coli BL21 codon plus, purified (Ni-chelating sepharose, Superdex 200 gel filtration)
stoichiometry N [1]: 4 and 8 | stoichiometry N [2]: 2
